Assay results reported in US20210261648A1 (published 2021).

T1: FcγRIIb extracellular domain with C-terminal His tag (human, UniProt P31994 43-217)
T1 construct: extracellular domain; For crystallography it was expressed with kifunensine and trimmed with Endo F1; also called FcgRIIb; FcγRIIb extracellular region; not shown: His tag attached to the C terminus
T1 sequence (looked up): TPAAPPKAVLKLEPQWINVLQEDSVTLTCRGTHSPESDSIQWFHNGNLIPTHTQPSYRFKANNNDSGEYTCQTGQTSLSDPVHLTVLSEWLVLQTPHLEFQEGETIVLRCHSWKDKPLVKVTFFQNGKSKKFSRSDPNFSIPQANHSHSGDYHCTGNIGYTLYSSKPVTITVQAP

T2: FcγRIIa type H extracellular domain with C-terminal His tag (human, UniProt P12318 34-217)
T2 construct: extracellular domain; also called FcγRIIaH; FcgRIIaH; not shown: His tag attached to the C terminus
T2 sequence (looked up): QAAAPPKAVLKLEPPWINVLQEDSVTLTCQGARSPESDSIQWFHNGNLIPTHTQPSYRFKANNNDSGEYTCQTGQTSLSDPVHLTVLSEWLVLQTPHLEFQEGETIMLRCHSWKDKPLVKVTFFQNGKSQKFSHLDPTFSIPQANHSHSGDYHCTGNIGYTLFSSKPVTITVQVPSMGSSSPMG

B1: IL6R-2B169/IL6R-L (antibody, human IgG1, kappa)
heavy: QVQLQESGPGLVKPSETLSLTCAVSGHSISHDHAWSWVRQPPGEGLEWIGFISYSGITNYNPSLQGRVTISRDNSKNTLYLQMNSLRAEDTAVYYCARSLARTTAMDYWGEGTLVTVSSASTKGPSVFPLAPSSKSTSGGTAALGCLVKDYFPEPVTVSWNSGALTSGVHTFPAVLQSSGLYSLSSVVTVPSSSLGTQTYICNVNHKPSNTKVDKKVEPKSCDKTHTCPPCPAPELLGGDSVFLFPPKPKDTLMISRTPEVTCVVVDVSHEDPEVKFNWYVDGVEVHNAKTKPREEQYNSTYRVVSVLTVLHQDWLNGKEYKCKISNKALPAPIEKTISKAKGQPREPQVYTLPPSRDELTKNQVSLTCLVKGFYPSDIAVEWESNGQPENNYKTTPPVLDSDGSFFLYSKLTVDKSRWQQGNVFSCSVMHEALHNHYTQESLSLSP
light: not shown
notes: Alterations introduced into IL6R-B3
B2: IL6R-2B171/IL6R-L (antibody, human IgG1, kappa)
heavy: QVQLQESGPGLVKPSETLSLTCAVSGHSISHDHAWSWVRQPPGEGLEWIGFISYSGITNYNPSLQGRVTISRDNSKNTLYLQMNSLRAEDTAVYYCARSLARTTAMDYWGEGTLVTVSSASTKGPSVFPLAPSSKSTSGGTAALGCLVKDYFPEPVTVSWNSGALTSGVHTFPAVLQSSGLYSLSSVVTVPSSSLGTQTYICNVNHKPSNTKVDKKVEPKSCDKTHTCPPCPAPELLGGDSVFLFPPKPKDTLMISRTPEVTCVVVDVSHEDPEVKFNWYVDGVEVHNAKTKPREEQYNSTYRVVSVLTVLHQDWLNGKEYKCKLSNKALPAPIEKTISKAKGQPREPQVYTLPPSRDELTKNQVSLTCLVKGFYPSDIAVEWESNGQPENNYKTTPPVLDSDGSFFLYSKLTVDKSRWQQGNVFSCSVMHEALHNHYTQESLSLSP
light: not shown
notes: as for B1
B3: IL6R-2B172/IL6R-L (antibody, human IgG1, kappa)
heavy: QVQLQESGPGLVKPSETLSLTCAVSGHSISHDHAWSWVRQPPGEGLEWIGFISYSGITNYNPSLQGRVTISRDNSKNTLYLQMNSLRAEDTAVYYCARSLARTTAMDYWGEGTLVTVSSASTKGPSVFPLAPSSKSTSGGTAALGCLVKDYFPEPVTVSWNSGALTSGVHTFPAVLQSSGLYSLSSVVTVPSSSLGTQTYICNVNHKPSNTKVDKKVEPKSCDKTHTCPPCPAPELLGGDSVFLFPPKPKDTLMISRTPEVTCVVVDVSHEDPEVKFNWYVDGVEVHNAKTKPREEQYNSTYRVVSVLTVLHQDWLNGKEYKCKMSNKALPAPIEKTISKAKGQPREPQVYTLPPSRDELTKNQVSLTCLVKGFYPSDIAVEWESNGQPENNYKTTPPVLDSDGSFFLYSKLTVDKSRWQQGNVFSCSVMHEALHNHYTQESLSLSP
light: not shown
notes: as for B1
B4: IL6R-BP078/IL6R-L (antibody, human IgG1, kappa)
heavy: QVQLQESGPGLVKPSETLSLTCAVSGHSISHDHAWSWVRQPPGEGLEWIGFISYSGITNYNPSLQGRVTISRDNSKNTLYLQMNSLRAEDTAVYYCARSLARTTAMDYWGEGTLVTVSSASTKGPSVFPLAPSSKSTSGGTAALGCLVKDYFPEPVTVSWNSGALTSGVHTFPAVLQSSGLYSLSSVVTVPSSSLGTQTYICNVNHKPSNTKVDKKVEPKSCDKTHTCPPCPAPELLGGDSVFLFPPKPKDTLMISRTPEVTCVVVDVSHEDPEVKFNWYVDGVEVHNAKTKPREEQYNSTYRVVSVLTVLHQDWLNGKEYKCKVSNKALPMPIEKTISKAKGQPREPQVYTLPPSRDELTKNQVSLTCLVKGFYPSDIAVEWESNGQPENNYKTTPPVLDSDGSFFLYSKLTVDKSRWQQGNVFSCSVMHEALHNHYTQESLSLSP
light: not shown
notes: as for B1
B5: IL6R-BP100/IL6R-L (antibody, human IgG1, kappa)
heavy: QVQLQESGPGLVKPSETLSLTCAVSGHSISHDHAWSWVRQPPGEGLEWIGFISYSGITNYNPSLQGRVTISRDNSKNTLYLQMNSLRAEDTAVYYCARSLARTTAMDYWGEGTLVTVSSASTKGPSVFPLAPSSKSTSGGTAALGCLVKDYFPEPVTVSWNSGALTSGVHTFPAVLQSSGLYSLSSVVTVPSSSLGTQTYICNVNHKPSNTKVDKKVEPKSCDKTHTCPPCPAPELLGGDSVFLFPPKPKDTLMISRTPEVTCVVVDVAHEDPEVKFNWYVDGVEVHNAKTKPREEQYNSTYRVVSVLTVLHQDWLNGKEYKCKVSNKALPAPIEKTISKAKGQPREPQVYTLPPSRDELTKNQVSLTCLVKGFYPSDIAVEWESNGQPENNYKTTPPVLDSDGSFFLYSKLTVDKSRWQQGNVFSCSVMHEALHNHYTQESLSLSP
light: not shown
notes: as for B1
B6: IL6R-BP102/IL6R-L (antibody, human IgG1, kappa)
heavy: QVQLQESGPGLVKPSETLSLTCAVSGHSISHDHAWSWVRQPPGEGLEWIGFISYSGITNYNPSLQGRVTISRDNSKNTLYLQMNSLRAEDTAVYYCARSLARTTAMDYWGEGTLVTVSSASTKGPSVFPLAPSSKSTSGGTAALGCLVKDYFPEPVTVSWNSGALTSGVHTFPAVLQSSGLYSLSSVVTVPSSSLGTQTYICNVNHKPSNTKVDKKVEPKSCDKTHTCPPCPAPELLGGDSVFLFPPKPKDTLMISRTPEVTCVVVDVQHEDPEVKFNWYVDGVEVHNAKTKPREEQYNSTYRVVSVLTVLHQDWLNGKEYKCKVSNKALPAPIEKTISKAKGQPREPQVYTLPPSRDELTKNQVSLTCLVKGFYPSDIAVEWESNGQPENNYKTTPPVLDSDGSFFLYSKLTVDKSRWQQGNVFSCSVMHEALHNHYTQESLSLSP
light: not shown
notes: as for B1
B7: IL6R-BP103/IL6R-L (antibody, human IgG1, kappa)
heavy: QVQLQESGPGLVKPSETLSLTCAVSGHSISHDHAWSWVRQPPGEGLEWIGFISYSGITNYNPSLQGRVTISRDNSKNTLYLQMNSLRAEDTAVYYCARSLARTTAMDYWGEGTLVTVSSASTKGPSVFPLAPSSKSTSGGTAALGCLVKDYFPEPVTVSWNSGALTSGVHTFPAVLQSSGLYSLSSVVTVPSSSLGTQTYICNVNHKPSNTKVDKKVEPKSCDKTHTCPPCPAPELLGGDSVFLFPPKPKDTLMISRTPEVTCVVVDVVHEDPEVKFNWYVDGVEVHNAKTKPREEQYNSTYRVVSVLTVLHQDWLNGKEYKCKVSNKALPAPIEKTISKAKGQPREPQVYTLPPSRDELTKNQVSLTCLVKGFYPSDIAVEWESNGQPENNYKTTPPVLDSDGSFFLYSKLTVDKSRWQQGNVFSCSVMHEALHNHYTQESLSLSP
light: not shown
notes: as for B1
B8: IL6R-BP106/IL6R-L (antibody, human IgG1, kappa)
heavy: QVQLQESGPGLVKPSETLSLTCAVSGHSISHDHAWSWVRQPPGEGLEWIGFISYSGITNYNPSLQGRVTISRDNSKNTLYLQMNSLRAEDTAVYYCARSLARTTAMDYWGEGTLVTVSSASTKGPSVFPLAPSSKSTSGGTAALGCLVKDYFPEPVTVSWNSGALTSGVHTFPAVLQSSGLYSLSSVVTVPSSSLGTQTYICNVNHKPSNTKVDKKVEPKSCDKTHTCPPCPAPELLGGDSVFLFPPKPKDTLMISRTPEVTCVVVDVSDEDPEVKFNWYVDGVEVHNAKTKPREEQYNSTYRVVSVLTVLHQDWLNGKEYKCKVSNKALPAPIEKTISKAKGQPREPQVYTLPPSRDELTKNQVSLTCLVKGFYPSDIAVEWESNGQPENNYKTTPPVLDSDGSFFLYSKLTVDKSRWQQGNVFSCSVMHEALHNHYTQESLSLSP
light: not shown
notes: as for B1
B9: IL6R-BP107/IL6R-L (antibody, human IgG1, kappa)
heavy: QVQLQESGPGLVKPSETLSLTCAVSGHSISHDHAWSWVRQPPGEGLEWIGFISYSGITNYNPSLQGRVTISRDNSKNTLYLQMNSLRAEDTAVYYCARSLARTTAMDYWGEGTLVTVSSASTKGPSVFPLAPSSKSTSGGTAALGCLVKDYFPEPVTVSWNSGALTSGVHTFPAVLQSSGLYSLSSVVTVPSSSLGTQTYICNVNHKPSNTKVDKKVEPKSCDKTHTCPPCPAPELLGGDSVFLFPPKPKDTLMISRTPEVTCVVVDVSEEDPEVKFNWYVDGVEVHNAKTKPREEQYNSTYRVVSVLTVLHQDWLNGKEYKCKVSNKALPAPIEKTISKAKGQPREPQVYTLPPSRDELTKNQVSLTCLVKGFYPSDIAVEWESNGQPENNYKTTPPVLDSDGSFFLYSKLTVDKSRWQQGNVFSCSVMHEALHNHYTQESLSLSP
light: not shown
notes: as for B1
B10: IL6R-BP110/IL6R-L (antibody, human IgG1, kappa)
heavy: QVQLQESGPGLVKPSETLSLTCAVSGHSISHDHAWSWVRQPPGEGLEWIGFISYSGITNYNPSLQGRVTISRDNSKNTLYLQMNSLRAEDTAVYYCARSLARTTAMDYWGEGTLVTVSSASTKGPSVFPLAPSSKSTSGGTAALGCLVKDYFPEPVTVSWNSGALTSGVHTFPAVLQSSGLYSLSSVVTVPSSSLGTQTYICNVNHKPSNTKVDKKVEPKSCDKTHTCPPCPAPELLGGDSVFLFPPKPKDTLMISRTPEVTCVVVDVSNEDPEVKFNWYVDGVEVHNAKTKPREEQYNSTYRVVSVLTVLHQDWLNGKEYKCKVSNKALPAPIEKTISKAKGQPREPQVYTLPPSRDELTKNQVSLTCLVKGFYPSDIAVEWESNGQPENNYKTTPPVLDSDGSFFLYSKLTVDKSRWQQGNVFSCSVMHEALHNHYTQESLSLSP
light: not shown
notes: as for B1

Assays:
Experiment in all cases: SPR binding amount, relative to IL6R-BF648/IL6R-L
[1] = target: T1, FcγRIIb extracellular domain with …
[2] = target: T3, FcγRIa extracellular domain with C-terminal His tag (human, UniProt P12314 16-292)
T3 construct: also called FcgRIa; not shown: His tag attached to the C terminus

[3] = target: T2, FcγRIIa type H extracellular domain …

T3 sequence (P12314 16-292): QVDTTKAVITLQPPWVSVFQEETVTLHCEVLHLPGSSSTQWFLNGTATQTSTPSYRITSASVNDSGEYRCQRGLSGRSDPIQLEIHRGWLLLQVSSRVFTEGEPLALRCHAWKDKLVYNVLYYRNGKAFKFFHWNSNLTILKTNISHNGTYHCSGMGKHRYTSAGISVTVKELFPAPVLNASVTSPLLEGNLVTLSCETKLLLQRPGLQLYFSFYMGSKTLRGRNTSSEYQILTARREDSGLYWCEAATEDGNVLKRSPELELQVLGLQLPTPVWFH

Binder | relative binding activity (IL6R-BF648/IL6R-L = 100) [1] | relative binding activity (IL6R-BF648/IL6R-L = 100) [2] | relative binding activity (IL6R-BF648/IL6R-L = 100) [3]
B1 | 104 | 73 | 83
B2 | 113 | 116 | 115
B3 | 132 | 140 | 179
B4 | 105 | 106 | 89
B5 | 110 | 121 | 128
B6 | 106 | 104 | 66
B7 | 107 | 56 | 69
B8 | 116 | 127 | 110
B9 | 118 | 123 | 114
B10 | 101 | 105 | 127
